For 3 molecules, fold change of the target/APOE band against APOE3-transfected cells results are on record in paper PMC11476584.

B1: Mitochondrial import receptor subunit TOM40 (TOMM40) (natural protein)
chain: MGNVLAASSPPAGPPPPPAPALVGLPPPPPSPPGFTLPPLGGSLGAGTSTSRSSERTPGAATASASGAAEDGACGCLPNPGTFEECHRKCKELFPIQMEGVKLTVNKGLSNHFQVNHTVALSTIGESNYHFGVTYVGTKQLSPTEAFPVLVGDMDNSGSLNAQVIHQLGPGLRSKMAIQTQQSKFVNWQVDGEYRGSDFTAAVTLGNPDVLVGSGILVAHYLQSITPCLALGGELVYHRRPGEEGTVMSLAGKYTLNNWLATVTLGQAGMHATYYHKASDQLQVGVEFEASTRMQDTSVSFGYQLDLPKANLLFKGSVDSNWIVGATLEKKLPPLPLTLALGAFLNHRKNKFQCGFGLTIG
B2: Lon protease (LONP1) (enzyme)
chain: FWEASSRGGGAFSGGEDASEGGAEEGAGGAGGSAGAGEGPVITALTPMTIPDVFPHLPLIAITRNPVFPRFIKIIEVKNKKLVELLRRKVRLAQPYVGVFLKRDDSNESDVVESLDEIYHTGTFAQIHEMQDLGDKLRMIVMGHRRVHISRQLEVEPEEPEAENKHKPRRKSKRGKKEAEDELSARHPAELAMEPTPELPAEVLMVEVENVVHEDFQVTEEVKALTAEIVKTIRDIIALNPLYRESVLQMMQAGQRVVDNPIYLSDMGAALTGAESHELQDVLEETNIPKRLYKALSLLKKEFELSKLQQRLGREVEEKIKQTHRKYLLQEQLKIIKKELGLEKDDKDAIEEKFRERLKELVVPKHVMDVVDEELSKLGLLDNHSSEFNVTRNYLDWLTSIPWGKYSNENLDLARAQAVLEEDHYGMEDVKKRILEFIAVSQLRGSTQGKILCFYGPPGVGKTSIARSIARALNREYFRFSVGGMTDVAEIKGHRRTYVGAMPGKIIQCLKKTKTENPLILIDEVDKIGRGYQGDPSSALLELLDPEQNANFLDHYLDVPVDLSKVLFICTANVTDTIPEPLRDRMEMINVSGYVAQEKLAIAERYLVPQARALCGLDESKAKLSSDVLTLLIKQYCRESGVRNLQKQVEKVLRKSAYKIVSGEAESVEVTPENLQDFVGKPVFTVERMYDVTPPGVVMGLAWTAMGGSTLFVETSLRRPQDKDAKGDKDGSLEVTGQLGEVMKESARIAYTFARAFLMQHAPANDYLVTSHIHLHVPEGATPKDGPSAGCTIVTALLSLAMGRPVRQNLAMTGEVSLTGKILPVGGIKEKTIAAKRAGVTCIVLPAENKKDFYDLAAFITEGLEVHFVEHYREIFDIAFPDEQAEALAVER

This assay addresses Apolipoprotein E4 (APOE4), overexpressed in transfected Huh7 cells (human) (UniProt P02649). The assay can be described thus: co-IP; APOE precipitated with anti-APOE antibody (sc-13521) and Protein G Sepharose, overnight at 4 °C, from lysates of APOE3- and APOE4-transfected Huh7 cells; Western blot, target bands normalised to the APOE signal. (In general: In western blotting, separated proteins are transferred to a membrane and probed.)
UniProt P02649, sequence (P02649 19-317): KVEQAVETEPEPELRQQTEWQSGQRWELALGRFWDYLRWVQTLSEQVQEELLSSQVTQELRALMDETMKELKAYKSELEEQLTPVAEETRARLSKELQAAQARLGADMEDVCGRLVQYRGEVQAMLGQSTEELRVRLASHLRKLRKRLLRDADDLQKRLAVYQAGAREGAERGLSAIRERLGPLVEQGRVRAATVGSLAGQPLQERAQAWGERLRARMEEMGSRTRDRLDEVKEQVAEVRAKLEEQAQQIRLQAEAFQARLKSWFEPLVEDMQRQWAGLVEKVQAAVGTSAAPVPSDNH
“Voltage-dependent anion-selective channel 1 (VDAC1) (from UniProt P21796 1-283) (natural protein)”: the fold change of the target/APOE band against APOE3-transfected cells was found to be 1.2 fold. Then B1, with 1.29 fold; and B2, with 2.11 fold.
